Molecular target: Purified recombinant HuFCRN/B2MG, biotinylated (human) (UniProt P55899)
Experiment: BLI (ForteBio Octet); biotinylated HuFCRN/B2MG on SA biosensors

- Kd: 69.7 nM
Substance: RITUXAN (Genentech), non-fused anti-CD20Ab (antibody)
